Earlier results, collected in PMC6121496.
pKd, pKi: −log10 of the molar value. Several values for one entry are separate records, joined by “and”; a condition that tells them apart may be missing. Equal entries are not always repeated. Where two headings read alike, the source gives them in different places.

Tests used:
[1] = molecular target: TEM-1 beta-lactamase (Escherichia coli) (UniProt P62593)
[2] = molecular target: KPC-2 beta-lactamase (Klebsiella pneumoniae) (UniProt Q9F663)
[3] = molecular target: TEM-1 beta-lactamase (Escherichia coli) (UniProt P62593); remark: listed apart in the source
[4] = molecular target: TEM-1 beta-lactamase (Escherichia coli) (UniProt P62593); remark: listed apart in the source
[5] = molecular target: TEM-1 beta-lactamase (Escherichia coli) (UniProt P62593); remark: listed apart in the source
[6] = molecular target: TEM-1 beta-lactamase (Escherichia coli) (UniProt P62593); remark: listed apart in the source
[7] = molecular target: TEM-1 beta-lactamase (Escherichia coli) (UniProt P62593); remark: listed apart in the source
[8] = molecular target: TEM-1 beta-lactamase (Escherichia coli) (UniProt P62593); test: SPR
[9] = molecular target: TEM-1 beta-lactamase (Escherichia coli) (UniProt P62593); test: SPR; remark: listed apart in the source
[10] = molecular target: CTX-M14 beta-lactamase (Escherichia coli); test: enzyme inhibition
[11] = molecular target: KPC-3 beta-lactamase (Klebsiella pneumoniae) (UniProt Q9F663); test: enzyme inhibition
[12] = molecular target: PC1 beta-lactamase (Staphylococcus aureus) (UniProt P00807); test: enzyme inhibition
[13] = molecular target: SHV-1 beta-lactamase (Klebsiella pneumoniae) (UniProt P0AD64); test: enzyme inhibition
[14] = molecular target: SME-1 beta-lactamase (Serratia marcescens) (UniProt P52682); test: enzyme inhibition
[15] = molecular target: PC1 beta-lactamase (Staphylococcus aureus) (UniProt P00807); test: stopped flow fluorometry, ITC
[16] = molecular target: TEM-1 beta-lactamase (Escherichia coli) (UniProt P62593); remark: listed apart in the source

UniProt P62593, sequence (P62593 24-286): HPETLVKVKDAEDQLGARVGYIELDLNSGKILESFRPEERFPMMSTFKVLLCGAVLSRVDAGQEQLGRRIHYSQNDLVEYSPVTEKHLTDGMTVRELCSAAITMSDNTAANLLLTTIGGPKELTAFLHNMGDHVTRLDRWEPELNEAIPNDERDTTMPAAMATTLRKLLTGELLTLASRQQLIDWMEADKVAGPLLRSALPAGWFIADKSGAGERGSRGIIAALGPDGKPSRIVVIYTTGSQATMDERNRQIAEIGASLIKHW
UniProt P0AD64, sequence (P0AD64 22-286): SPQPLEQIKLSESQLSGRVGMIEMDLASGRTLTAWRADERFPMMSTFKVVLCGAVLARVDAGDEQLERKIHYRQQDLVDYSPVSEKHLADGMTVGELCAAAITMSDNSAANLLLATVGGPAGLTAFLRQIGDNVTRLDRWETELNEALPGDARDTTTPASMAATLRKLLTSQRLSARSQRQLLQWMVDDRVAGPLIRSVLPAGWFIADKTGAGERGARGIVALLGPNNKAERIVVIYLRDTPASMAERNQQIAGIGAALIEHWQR
UniProt P00807, sequence (P00807 25-281): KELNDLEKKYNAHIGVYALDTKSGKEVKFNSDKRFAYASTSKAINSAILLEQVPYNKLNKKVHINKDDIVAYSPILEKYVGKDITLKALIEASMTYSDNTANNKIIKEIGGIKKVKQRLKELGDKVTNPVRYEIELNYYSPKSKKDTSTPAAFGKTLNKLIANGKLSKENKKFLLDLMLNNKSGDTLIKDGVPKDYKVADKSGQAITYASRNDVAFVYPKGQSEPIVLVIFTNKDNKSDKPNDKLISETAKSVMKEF
UniProt P52682, sequence (P52682 28-294): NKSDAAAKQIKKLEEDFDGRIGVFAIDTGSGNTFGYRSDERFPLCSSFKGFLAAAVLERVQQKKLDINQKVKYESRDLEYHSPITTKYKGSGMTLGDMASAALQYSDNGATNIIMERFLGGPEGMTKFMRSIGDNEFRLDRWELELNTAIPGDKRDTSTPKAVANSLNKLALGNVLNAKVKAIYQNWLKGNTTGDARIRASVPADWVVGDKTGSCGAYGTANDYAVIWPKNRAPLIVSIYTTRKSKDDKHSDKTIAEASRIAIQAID

## BLIP peptide (from UniProt P35804)
[1]
  pKi: 4.24

## BLIP (from UniProt P35804)
[2]
  pKi: 8.92
[3]
  pKi: 9.40
[4]
  pKd: 8.89 and 8.77
[5]
  pKi: 9.30
[6]
  pKd: 9.52
[7]
  pKd: 9.40
[8]
  pKd: 8.90
[9]
  pKd: 7.82
[10]
  pKi: 6.09
[11]
  pKi: 9.60
[12]
  pKi: 6.46
[13]
  pKd: 5.90
  pKi: 5.96 and 5.95
[14]
  pKi: 8.62
[15]
  pKd: 6.42

## BLIP peptide 30-49 (from UniProt P35804)
[16]
  pKi: 3.45
